Test results taken from paper PMC11093223, “Cargo selective vesicle tethering: The structural basis for binding of specific cargo proteins by the Golgi tether component TBC1D23” (Science Advances, 2024).

Key:
Conditions in all cases: both partners purified
[1] = target: T1, Mouse TBC1D23 (559-684), C-terminal domain (mouse, UniProt Q8K0F1 559-684); experiment: ITC; peptide (0.8 to 5 mM) titrated into 100 uM TBC1D23 C-terminal domain, 20 injections of 2.4 ul; 20°C; 100 mM NaCl, 100 mM tris pH 7.4, 1 mM TCEP; mean of three runs
T1 construct: TBC1D23, mouse, UniProt Q8K0F1 (684 residues), C-terminal domain, residues 559-684; also called TBC1D23 C-terminal domain; TBC1D23 full length C-terminal domain; source: E. coli BL21 plyS, purified (glutathione-Sepharose, thrombin cleavage, Superdex 200 gel filtration)

[2] = target: T2, TBC1D23 C-terminal domain I675W (mouse, UniProt Q8K0F1 559-677, I675W); experiment: ITC; peptide (0.8 to 5 mM) titrated into 100 μM TBC1D23 C-terminal domain, 20°C, 100 mM NaCl, 100 mM tris pH 7.4, 1 mM TCEP, Nano ITC
T2 construct: TBC1D23, mouse, UniProt Q8K0F1, C-terminal domain (limits as m7, in data S3); source: E. coli BL21 plyS, purified (glutathione-Sepharose, GST cleaved with thrombin, Superdex 200)

[3] = target: T3, TBC1D23 C-terminal domain (mouse, UniProt Q8K0F1 559-684); experiment: as above
T3 construct: TBC1D23, mouse, UniProt Q8K0F1, C-terminal domain ending with VLDALES at residue 684; used for ITC and for the 3.3 Å crystals; also called the C-terminal domain; TBC1D23 full-length C-terminal domain; source: E. coli BL21 plyS, purified (glutathione-Sepharose, GST cleaved with thrombin, Superdex 200)

[4] = target: T4, TBC1D23 C-terminal domain K672A (mouse, UniProt Q8K0F1 559-677, K672A); experiment: as above
T4 construct: TBC1D23, mouse, UniProt Q8K0F1, C-terminal domain (limits as m7, in data S3); source: E. coli BL21 plyS, purified (glutathione-Sepharose, GST cleaved with thrombin, Superdex 200)
T4 sequence (Q8K0F1 559-677 K672A): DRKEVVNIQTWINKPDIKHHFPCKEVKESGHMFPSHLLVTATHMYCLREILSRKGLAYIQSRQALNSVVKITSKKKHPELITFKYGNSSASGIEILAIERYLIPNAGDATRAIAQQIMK

T1 sequence (Q8K0F1 559-684): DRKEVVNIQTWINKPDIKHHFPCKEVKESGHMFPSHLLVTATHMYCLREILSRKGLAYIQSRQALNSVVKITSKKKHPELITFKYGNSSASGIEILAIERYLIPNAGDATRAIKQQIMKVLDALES
T3 sequence (Q8K0F1 559-684): as above
T2 sequence (Q8K0F1 559-677 I675W): as the sequence (Q8K0F1 559-677 K672A) above, with A114K, I117W counted along it

B1: syntaxin-16 peptide L213A (peptide)
peptide: DDNTAYHRGFTED
notes: syntaxin-16, human, residues 209-221 with L213A
**Q.** Which Kd [1] does the source give for B1 here?
**A.** Its Kd is > 200 µM.

B2: syntaxin-16 peptide L213F (peptide)
peptide: DDNTFYHRGFTED
notes: syntaxin-16, human, residues 209-221 with L213F
**Q.** For B2, which Kd [1] is on record?
**A.** The Kd was 150 µM.

B3: syntaxin-16 peptide T212S (peptide)
peptide: DDNSLYHRGFTED
notes: syntaxin-16, human, residues 209-221 with T212S
**Q.** B3 was tested. Which Kd [1] did it give?
**A.** The Kd was 30.1 µM.

B4: syntaxin-16 peptide Y214F (peptide)
peptide: DDNTLFHRGFTED
notes: syntaxin-16, human, residues 209-221 with Y214F
**Q.** With B4 as the binder, how does the Kd [1] read?
**A.** Its Kd is 15.5 µM.

B5: syntaxin-16 peptide Y214W (peptide)
peptide: DDNTLWHRGFTED
notes: syntaxin-16, human, residues 209-221 with Y214W
**Q.** Which Kd [1] does the source give for B5 here?
**A.** Its Kd is 5.6 µM.

B6: syntaxin-16 (209–221) peptide (peptide, UniProt O14662 209-221, looked up)
peptide: DDNTLYHRGFTED
notes: syntaxin-16, human, residues 209 to 221, beginning 209DDNTLY (T212, L213, Y214, R216); also called syntaxin-16 peptide; wild type; source: peptide
**Q.** How did the Kd [2] turn out when B6 was run?
**A.** The Kd was > 300 µM.

**Q.** And the Kd [3]?
**A.** The Kd was ~1.4 µM.

**Q.** And the “stoichiometry N” value [3]?
**A.** Its value is 1.

**Q.** What about the Kd [4] of the same binder?
**A.** The Kd was ~30 µM.

B7: syntaxin-16 peptide T212S (peptide, UniProt O14662 209-221, looked up)
peptide: DDNSLYHRGFTED
notes: syntaxin-16, human, peptide 209 to 221 as m28; source: peptide
**Q.** B7 was tested. Which Kd [3] did it give?
**A.** The Kd was ~30 µM.

B8: syntaxin-16 peptide Y214F (peptide, UniProt O14662 209-221, looked up)
peptide: DDNTLFHRGFTED
notes: as for B7
**Q.** For B8, which Kd [3] is on record?
**A.** The Kd was ~15 µM.

B9: syntaxin-16 peptide Y214W (peptide, UniProt O14662 209-221, looked up)
peptide: DDNTLWHRGFTED
notes: as for B7
**Q.** B9 was tested. Which Kd [3] did it give?
**A.** The Kd was ~7 µM.
